{"source": "patent US20100015650", "proteins": {"B1": {"name": "ZAP70 (protein)", "chain": "MPDPAAHLPFFYGSISRAEAEEHLKLAGMADGLFLLRQCLRSLGGYVLSLVHDVRFHHFPIERQLNGTYAIAGGKAHCGPAELCEFYSRDPDGLPCNLRKPCNRPSGLEPQPGVFDCLRDAMVRDYVRQTWKLEGEALEQAIISQAPQVEKLIATTAHERMPWYHSSLTREEAERKLYSGAQTDGKFLLRPRKEQGTYALSLIYGKTVYHYLISQDKAGKYCIPEGTKFDTLWQLVEYLKLKADGLIYCLKEACPNSSASNASGAAAPTLPAHPSTLTHPQRRIDTLNSDGYTPEPARITSPDKPRPMPMDTSVYESPYSDPEELKDKKLFLKRDNLLIADIELGCGNFGSVRQGVYRMRKKQIDVAIKVLKQGTEKADTEEMMREAQIMHQLDNPYIVRLIGVCQAEALMLVMEMAGGGPLHKFLVGKREEIPVSNVAELLHQVSMGMKYLEEKNFVHRDLAARNVLLVNRHYAKISDFGLSKALGADDSYYTARSAGKWPLKWYAPECINFRKFSSRSDVWSYGVTMWEALSYGQKPYKKMKGPEVMAFIEQGKRMECPPECPPELYALMSDCWIYKWEDRPDFLTVEQRMRACYYSLASKVEGPPGSTQKAEAACA"}, "B2": {"name": "EphA2 (protein)", "chain": "HRRRKNQRARQSPEDVYFSKSEQLKPLKTYVDPHTYEDPNQAVLKFTTEIHPSCVTRQKVIGAGEFGEVYKGMLKTSSGKKEVPVAIKTLKAGYTEKQRVDFLGEAGIMGQFSHHNIIRLEGVISKYKPMMIITEYMENGALDKFLREKDGEFSVLQLVGMLRGIAAGMKYLANMNYVHRDLAARNILVNSNLVCKVSDFGLSRVLEDDPEATYTTSGGKIPIRWTAPEAISYRKFTSASDVWSFGIVMWEVMTYGERPYWELSNHEVMKAINDGFRLPTPMDCPSAIYQLMMQCWQQERARRPKFADIVSILDKLIRAPDSLKTLADFDPRVSIRLPSTSGSEGVPFRTVSEWLESIKMQQYTEHFMAAGYTAIEKVVQMTNDDIKRIGVRLPGHQKRIAYSLLGLKDQVNTVGIPI"}, "B3": {"name": "AXL (protein)", "chain": "HRRKKETRYGEVFEPTVERGELVVRYRVRKSYSRRTTEATLNSLGISEELKEKLRDVMVDRHKVALGKTLGEGEFGAVMEGQLNQDDSILKVAVKTMKIAICTRSELEDFLSEAVCMKEFDHPNVMRLIGVCFQGSERESFPAPVVILPFMKHGDLHSFLLYSRLGDQPVYLPTQMLVKFMADIASGMEYLSTKRFIHRDLAARNCMLNENMSVCVADFGLSKKIYNGDYYRQGRIAKMPVKWIAIESLADRVYTSKSDVWSFGVTMWEIATRGQTPYPGVENSEIYDYLRQGNRLKQPADCLDGLYALMSRCWELNPQDRPSFTELREDLENTLKALPPAQEPDEILYVNMDEGGGYPEPPGAAGGADPPTQPDPKDSCSCLTAAEVHPAGRYVLCPSTTPSPAQPADRGSPAAPGQEDGA"}, "B4": {"name": "EphA1 (protein)", "chain": "RSRRAQRQRQQRQRDRATDVDREDKLWLKPYVDLQAYEDPAQGALDFTRELDPAWLMVDTVIGEGEFGEVYRGTLRLPSQDCKTVAIKTLKDTSPGGQWWNFLREATIMGQFSHPHILHLEGVVTKRKPIMIITEFMENGALDAFLREREDQLVPGQLVAMLQGIASGMNYLSNHNYVHRDLAARNILVNQNLCCKVSDFGLTRLLDDFDGTYETQGGKIPIRWTAPEAIAHRIFTTASDVWSFGIVMWEVLSFGDKPYGEMSNQEVMKSIEDGYRLPPPVDCPAPLYELMKNCWAYDRARRPHFQKLQAHLEQLLANPHSLRTIANFDPRMTLRLPSLSGSDGIPYRTVSEWLESIRMKRYILHFHSAGLDTMECVLELTAEDLTQMGITLPGHQKRILCSIQGFKD"}, "B5": {"name": "TYK2 (protein)", "chain": "PHNLADVLTVNPDSPASDPTVFHKRYLKKIRDLGEGHFGKVSLYCYDPTNDGTGEMVAVKALKADCGPQHRSGWKQEIDILRTLYHEHIIKYKGCCEDQGEKSLQLVMEYVPLGSLRDYLPRHSIGLAQLLLFAQQICEGMAYLHAQHYIHRDLAARNVLLDNDRLVKIGDFGLAKAVPEGHEYYRVREDGDSPVFWYAPECLKEYKFYYASDVWSFGVTLYELLTHCDSSQSPPTKFLELIGIAQGQMTVLRLTELLERGERLPRPDKCPCEVYHLMKNCWETEASFRPTFENLIPILKTVHEKYQGQAPSVFSVC"}, "B6": {"name": "TNK1 (protein)", "chain": "MLPEAGSLWLLKLLRDIQLAQFYWPILEELNVTRPEHFDFVKPEDLDGIGMGRPAQRRLSEALKRLRSGPKSKNWVYKILGGFAPEHKEPTLPSDSPRHLPEPEGGLKCLIPEGAVCRGELLGSGCFGVVHRGLWTLPSGKSVPVAVKSLRVGPEGPMGTELGDFLREVSVMMNLEHPHVLRLHGLVLGQPLQMVMELAPLGSLHARLTAPAPTPPLLVALLCLFLRQLAGAMAYLGARGLVHRDLATRNLLLASPRTIKVADFGLVRPLGGARGRYVMGGPRPIPYAWCAPESLRHGAFSSASDVWMFGVTLWEMFSGGEEPWAGVPPYLILQRLEDRARLPRPPLCSRALYSLALRCWAPHPADRPSFSHLEGLLQEAGPSEACCVRDVTEPGALRMETGDPITVIEGSSSFHSPDSTIWKGQNGRTFKVGSFPASAVTLADAGGLPATRPVHRGTPARGDQHPGSIDGDRKKANLWDAPPARGQRRNMPLERMKGISRSLESVLSLGPRPTGGGSSPPEIRQARAVPQGPPGLPPRPPLSSSSPQPSQPSRERLPWPKRKPPHNHPMGMPGARKAAALSGGLLSDPELQRKIMEVELSVHGVTHQECQTALGATGGDVVSAIRNLKVDQLFHLSSRSRADCWRILEHYQWDLSAASRYVLARP"}, "B7": {"name": "ACK (protein)", "chain": "GEGPLQSLTCLIGEKDLRLLEKLGDGSFGVVRRGEWDAPSGKTVSVAVKCLKPDVLSQPEAMDDFIREVNAMHSLDHRNLIRLYGVVLTPPMKMVTELAPLGSLLDRLRKHQGHFLLGTLSRYAVQVAEGMGYLESKRFIHRDLAARNLLLATRDLVKIGDFGLMRALPQNDDHYVMQEHRKVPFAWCAPESLKTRTFSHASDTWMFGVTLWEMFTYGQEPWIGLNGSQILHKIDKEGERLPRPEDCPQDIYNVMVQCWAHKPEDRPTFVALRDFLLEAQPTDMRALQDFEEPDKLHIQMNDVITVIEGRAENYWWRGQNTRTLCVGPFPRNVVTSVAGLSAQDISQPLQNSFIHTGHGDSDPRHCW"}, "B8": {"name": "ALK (protein)", "chain": "VYRRKHQELQAMQMELQSPEYKLSKLRTSTIMTDYNPNYCFAGKTSSISDLKEVPRKNITLIRGLGHGAFGEVYEGQVSGMPNDPSPLQVAVKTLPEVCSEQDELDFLMEALIISKFNHQNIVRCIGVSLQSLPRFILLELMAGGDLKSFLRETRPRPSQPSSLAMLDLLHVARDIACGCQYLEENHFIHRDIAARNCLLTCPGPGRVAKIGDFGMARDIYRASYYRKGGCAMLPVKWMPPEAFMEGIFTSKTDTWSFGVLLWEIFSLGYMPYPSKSNQEVLEFVTSGGRMDPPKNCPGPVYRIMTQCWQHQPEDRPNFAIILERIEYCTQDPDVINTALPIEYGPLVEEEEKVPVRPKDPEGVPPLLVSQQAKREEERSPAAPPPLPTTSSGKAAKKPTAAEISVRVPRGPAVEGGHVNMAFSQSNPPSELHKVHGSRNKPTSLWNPTYGSWFTEKPTKKNNPIAKKEPHDRGNLGLEGSCTVPPNVATGRLPGASLLLEPSSLTANMKEVPLFRLRHFPCGNVNYGYQQQGLPLEAATAPGAGHYEDTILKSKNSMNQPGP"}, "B9": {"name": "EphA3 (protein)", "chain": "RFCGYKSKHGADEKRLHFGNGHLKLPGLRTYVDPHTYEDPTQAVHEFAKELDATNISIDKVVGAGEFGEVCSGRLKLPSKKEISVAIKTLKVGYTEKQRRDFLGEASIMGQFDHPNIIRLEGVVTKSKPVMIVTEYMENGSLDSFLRKHDAQFTVIQLVGMLRGIASGMKYLSDMGYVHRDLAARNILINSNLVCKVSDFGLSRVLEDDPEAAYTTRGGKIPIRWTSPEAIAYRKFTSASDVWSYGIVLWEVMSYGERPYWEMSNQDVIKAVDEGYRLPPPMDCPAALYQLMLDCWQKDRNNRPKFEQIVSILDKLIRNPGSLKIITSAAARPSNLLLDQSNVDITTFRTTGDWLNGVWTAHCKEIFTGVEYSSCDTIAKISTDDMKKVGVTVVGPQKKIISSIKALETQSKNGPVPV"}, "B10": {"name": "DDR1 (protein)", "chain": "RRLLSKAERRVLEEELTVHLSVPGDTILINNRPGPREPPPYQEPRPRGNPPHSAPCVPNGSALLLSNPAYRLLLATYARPPRGPGPPTPAWAKPTNTQAYSGDYMEPEKPGAPLLPPPPQNSVPHYAEADIVTLQGVTGGNTYAVPALPPGAVGDGPPRVDFPRSRLRFKEKLGEGQFGEVHLCEVDSPQDLVSLDFPLNVRKGHPLLVAVKILRPDATKNARNDFLKEVKIMSRLKDPNIIRLLGVCVQDDPLCMITDYMENGDLNQFLSAHQLEDKAAEGAPGDGQAAQGPTISYPMLLHVAAQIASGMRYLATLNFVHRDLATRNCLVGENFTIKIADFGMSRNLYAGDYYRVQGRAVLPIRWMAWECILMGKFTTASDVWAFGVTLWEVLMLCRAQPFGQLTDEQVIENAGEFFRDQGRQVYLSRPPACPQGLYELMLRCWSRESEQRPPFSQLHRFLAEDALNTV"}, "B11": {"name": "DDR2 (protein)", "chain": "RQFWQKMLEKASRRMLDDEMTVSLSLPSDSSMFNNNRSSSPSEQGSNSTYDRIFPLRPDYQEPSRLIRKLPEFAPGEEESGCSGVVKPVQPSGPEGVPHYAEADIVNLQGVTGGNTYSVPAVTMDLLSGKDVAVEEFPRKLLTFKEKLGEGQFGEVHLCEVEGMEKFKDKDFALDVSANQPVLVAVKMLRADANKNARNDFLKEIKIMSRLKDPNIIHLLAVCITDDPLCMITEYMENGDLNQFLSRHEPPNSSSSDVRTVSYTNLKFMATQIASGMKYLSSLNFVHRDLATRNCLVGKNYTIKIADFGMSRNLYSGDYYRIQGRAVLPIRWMSWESILLGKFTTASDVWAFGVTLWETFTFCQEQPYSQLSDEQVIENTGEFFRDQGRQTYLPQPAICPDSVYKLMLSCWRRDTKNRPSFQEIHLLLLQQGDE"}, "B12": {"name": "TXK (protein)", "chain": "MILSSYNTIQSVFCCCCCCSVQKRQMRTQISLSTDEELPEKYTQRRRPWLSQLSNKKQSNTGRVQPSKRKPLPPLPPSEVAEEKIQVKALYDFLPREPCNLALRRAEEYLILEKYNPHWWKARDRLGNEGLIPSNYVTENKITNLEIYEWYHRNITRNQAEHLLRQESKEGAFIVRDSRHLGSYTISVFMGARRSTEAAIKHYQIKKNDSGQWYVAERHAFQSIPELIWYHQHNAAGLMTRLRYPVGLMGSCLPATAGFSYEKWEIDPSELAFIKEIGSGQFGVVHLGEWRSHIQVAIKAINEGSMSEEDFIEEAKVMMKLSHSKLVQLYGVCIQRKPLYIVTEFMENGCLLNYLRENKGKLRKEMLLSVCQDICEGMEYLERNGYIHRDLAARNCLVSSTCIVKISDFGMTRYVLDDEYVSSFGAKFPIKWSPPEVFLFNKYSSKSDVWSFGVLMWEVFTEGKMPFENKSNLQVVEAISEGFRLYRPHLAPMSIYEVMYSCWHEKPEGRPTFAELLRAVTEIAETW"}}, "target": "T1, BRB1 tyrosine kinase substrate peptide", "T1 chain": "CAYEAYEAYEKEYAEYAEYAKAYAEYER", "data": [{"protein": "B1", "values": [{"measurement": "Signal to Noise ratio with BRB1 Peptide (TR-FRET kinase assay; kinase 4 nM)", "result": 7.6}]}, {"protein": "B2", "values": [{"measurement": "Signal to Noise ratio with BRB1 Peptide (TR-FRET kinase assay; kinase 0.25 nM)", "result": 26.9}]}, {"protein": "B3", "values": [{"measurement": "Signal to Noise ratio with BRB1 Peptide (TR-FRET kinase assay; kinase 4 nM)", "result": 1.8}]}, {"protein": "B4", "values": [{"measurement": "Signal to Noise ratio with BRB1 Peptide (TR-FRET kinase assay; kinase 0.5 nM)", "result": 10.8}]}, {"protein": "B5", "values": [{"measurement": "Signal to Noise ratio with BRB1 Peptide (TR-FRET kinase assay; kinase 4 nM)", "result": 7.3}]}, {"protein": "B6", "values": [{"measurement": "Signal to Noise Ratio with BRB1 Peptide (TR-FRET kinase assay; kinase 1 nM)", "result": 6.8}]}, {"protein": "B7", "values": [{"measurement": "Signal to Noise Ratio with BRB1 Peptide (TR-FRET kinase assay; kinase 20 nM)", "result": 17.3}]}, {"protein": "B8", "values": [{"measurement": "Signal to Noise ratio with BRB1 Peptide (TR-FRET kinase assay; kinase 4 nM)", "result": 8.8}]}, {"protein": "B9", "values": [{"measurement": "Signal to Noise ratio with BRB1 Peptide (TR-FRET kinase assay; kinase 0.5 nM)", "result": 22.4}]}, {"protein": "B10", "values": [{"measurement": "Signal to Noise ratio with BRB1 Peptide (TR-FRET kinase assay; kinase 0.5 nM)", "result": 1}]}, {"protein": "B11", "values": [{"measurement": "Signal to Noise ratio with BRB1 Peptide (TR-FRET kinase assay; kinase 0.5 nM)", "result": 1}]}, {"protein": "B12", "values": [{"measurement": "Signal to Noise Ratio with BRB1 Peptide (TR-FRET kinase assay; kinase 3 nM)", "result": 5.9}]}]}
